From patent US20230227838A1, “ENHANCED CELL SURVIVAL AGAINST BIOTIC AND ABIOTIC STRESSES THROUGH SALICYLICK ACID-INDUCED NPR1 CONDENSATES” (priority 2020, published 2023) come the findings set out here.

In this assay the target is sim3-GFP (Arabidopsis thaliana) (UniProt P93002). In words: sim3-GFP IP, LC-MS/MS.
Chain of sim3-GFP (Arabidopsis thaliana) (P93002 other isoform, or with tags, fused parts or gaps): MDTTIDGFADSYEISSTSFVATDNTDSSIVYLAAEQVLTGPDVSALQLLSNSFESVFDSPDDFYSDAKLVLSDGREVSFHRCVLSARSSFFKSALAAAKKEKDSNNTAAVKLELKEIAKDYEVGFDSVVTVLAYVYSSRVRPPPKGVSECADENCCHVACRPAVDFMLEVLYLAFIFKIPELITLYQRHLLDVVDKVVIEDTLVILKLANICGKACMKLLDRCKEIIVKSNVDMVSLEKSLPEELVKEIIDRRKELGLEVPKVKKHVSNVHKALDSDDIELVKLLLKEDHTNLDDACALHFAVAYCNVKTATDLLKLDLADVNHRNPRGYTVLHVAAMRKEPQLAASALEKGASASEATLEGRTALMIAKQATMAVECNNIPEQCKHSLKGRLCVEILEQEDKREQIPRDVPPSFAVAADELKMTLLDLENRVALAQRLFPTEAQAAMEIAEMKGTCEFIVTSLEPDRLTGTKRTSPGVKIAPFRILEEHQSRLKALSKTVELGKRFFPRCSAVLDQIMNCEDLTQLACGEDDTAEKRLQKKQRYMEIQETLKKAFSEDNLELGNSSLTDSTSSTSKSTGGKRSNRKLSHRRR

B1: NSP5, nitrile specifier protein 5 (protein, UniProt Q93XW5 1-326, looked up)
Thiohydroximate-O-sulfate sulfur/sulfate-lyase (nitrile-forming) NSP5: MCPVENKWLKVGQKGAGPGARSSHAMTVVGNKVYCFGGELKPTIHIDNDLYVFDLETQEWSIAPATGEAPFPCFGVSMVTIGSTIYVYGGRDDKRRYNGLHSYDTETNEWKLLAPVEEGLPGRSYHSMAGDDRKVYVFGGVTAKGRVNTLHAYDVVDQKWVEYPAAGEACKGRGAPGLVVVEGRIWVLFGFDGNELGDIHCFDLASEQWKAVETTGDVPAARSVFPAVSYGKYIVIYGGEEEPHELMHMGAGKMSGEVYQLDTETLVWERIVCGNEEEKPSQRGWCAFTKAVKDGEEGLLVHGGNSPTNERLDDLVFWGFSHLNVN
In the case of B1, the Normalized Fold Change: SA vs Mock was determined as 5240 fold.

B2: UBP2, ubiquitin-specific protease 2 (protein, UniProt Q8W4N3 1-961, looked up)
Ubiquitin carboxyl-terminal hydrolase 2: MGKKAKKKARAPTKEIQTMEISKKVSEEPPSQAGEIAEGDVKAVKETQACVHFDKALNLEKVLDKIKSSRQIKCAECNEGVYGKRGTKAKGSKGKKDFSSSDPKSNNKAIWLCLECGCYVCGGVGLPNGPQSHVLRHSRVTRHRLVIQWENPQLRWCFPCQLLLPVEKEDNGEKKDVLSEVVKLIKGRSLNNLASSDIEDQCSGSGSITSDIKLEGAVTSDIEARDGYVVRGLVNLGNTCFFNSIMQNLLSLDRLRDHFLKENGSGVGGPLASSLRKLFTETKPEAGLKSVINPRAFFGSFCSKAPQFRGYDQHDSHELLRCLLDSLSTEESALRKKRGVSDNDEKSTTLIESVFGGETSSIVSCMECGHSSKVYEPFLDLSLPVPFKKSPPKKPQPVSRAKKAKLPPKRVPKNVSKVSKVSKVLPGMVLSELNSSGKSMAVTADSDTSCSSLAPLDNGPVLETPSVLTLDNNQASESASQSDTGFDGSWLDFIGPETSGDETNLDMQEDGIDNVITAEVNQIVPSPNIVANSSVSSGDQTLEGNTERLMQDYEEIAKAEANLDEKDVQAMQSDECPATSGISAEFSQASCIGCDPGIGESSSSVNPWDEEELPLVVADSQILYMPYKEISCNDKSVEGECEASSSFVTGDHEPQNSDFVDFGGLFDEPETTEGPVFGPPSKAEASGVGFMAFSSESDPEEIDDSDLPVSVERCLGHFTKHEILSDDNAWNCENCSKNLKLQRLREKRKSNEDESRSSNTSNGWVKENEDEGFGETEILAVKQDPNDTSCVKDHSSDGRKAARIHSADESESKGTQDEDEDSEKVITVKRDATKKVLINKAPPVLTIHLKRFSQDLRGRLSKLNGHVAFKEVIDLRQYMDSRCSGEDPPVYRLAGLVEHSGTMRGGHYVAYVRGGQRVKETDSSSTAWYNVSDAYVRQVSLEKVLHSEAYILFYERIFSQE
B2 displayed a Normalized Fold Change: SA vs Mock of 2.31 fold.

B3: SAE2, SUMO-activating enzyme 2 (protein, UniProt Q9SJT1 2-700, looked up)
SUMO-activating enzyme subunit 2: ATQQQQSAIKGAKVLMVGAGGIGCELLKTLALSGFEDIHIIDMDTIEVSNLNRQFLFRRSHVGQSKAKVARDAVLRFRPNINIRSYHANVKNPEFDVDFFKQFDVVLNGLDNLDARRHVNRLCLAADVPLVESGTTGFLGQVTVHIKGKTECYECQTKPAPKTYPVCTITSTPTKFVHCIVWAKDLLFAKLFGDKNQDNDLNVRSNNSASSSKETEDVFERSEDEDIEQYGRKIYDHVFGSNIEAALSNEETWKNRRRPRPIYSKDVLPESLTQQNGSTQNCSVTDGDLMVSAMPSLGLKNPQELWGLTQNSLVFIEALKLFFAKRKKEIGHLTFDKDDQLAVEFVTAAANIRAESFGIPLHSLFEAKGIAGNIVHAVATTNAIIAGLIVIEAIKVLKKDVDKFRMTYCLEHPSKKLLLMPIEPYEPNPACYVCSETPLVLEINTRKSKLRDLVDKIVKTKLGMNLPLIMHGNSLLYEVGDDLDDIMVANYNANLEKYLSELPSPILNGSILTVEDLQQELSCKINVKHRFFSEILNPVLNSVWFLIILPSTFPKLFHFTESRNQDGLSLDIILGFSNVTIRRVLTMFETGRRLTHPLLILFCHREEFDEEKEPEGMVLSGWTPSPATNGESASTSNNENPVDVTESSSGSEPASKKRRLSETEASNHKKETENVESEDDDIMEVENPMMVSKKKIRVE
As for B3, the Normalized Fold Change: SA vs Mock was determined as 5.82 fold.

B4: LON2, lon protease 2 (protein, UniProt O64948 1-888, looked up)
Lon protease homolog 2, peroxisomal: MAETVELPSRLAILPFRNKVLLPGAIIRIRCTSHSSVTLVEQELWQKEEKGLIGILPVRDDAEGSSIGTMINPGAGSDSGERSLKFLVGTTDAQKSDAKDQQDLQWHTRGVAARALHLSRGVEKPSGRVTYVVVLEGLSRFNVQELGKRGPYSVARITSLEMTKAELEQVKQDPDFVALSRQFKTTAMELVSVLEQKQKTGGRTKVLLETVPIHKLADIFVASFEMSFEEQLSMLDSVDLKVRLSKATELVDRHLQSIRVAEKITQKVEGQLSKSQKEYLLRQQMRAIKEELGDNDDDEDDVAALERKMQAAGMPSNIWKHAQRELRRLKKMQPQQPGYNSSRVYLELLADLPWDKASEEHELDLKAAKERLDSDHYGLAKVKQRIIEYLAVRKLKPDARGPVLCFVGPPGVGKTSLASSIAAALGRKFVRLSLGGVKDEADIRGHRRTYIGSMPGRLIDGLKRVGVCNPVMLLDEIDKTGSDVRGDPASALLEVLDPEQNKSFNDHYLNVPYDLSKVVFVATANRVQPIPPPLLDRMELIELPGYTQEEKLKIAMRHLIPRVLDQHGLSSEFLKIPEAMVKNIIQRYTREAGVRSLERNLAALARAAAVMVAEHEQSLPLSKDVQKLTSPLLNGRMAEGGEVEMEVIPMGVNDHEIGGTFQSPSALVVDETMLEKILGPPRFDDSEAADRVASAGVSVGLVWTTFGGEVQFVEATSMVGKGEMHLTGQLGDVIKESAQLALTWVRARASDFKLALAGDMNVLDGRDIHIHFPAGAVPKDGPSAGVTLVTALVSLFSQKRVRADTAMTGEMTLRGLVLPVGGIKDKILAAHRYGIKRVILPQRNSKDLVEVPAAVLSSLEVILAKRMEDVLENAFEGGCPWRNNYSKL
In turn, B4 registered a Normalized Fold Change: SA vs Mock of 2.47 fold.

B5: CLIP-associated protein (protein, UniProt Q8RWY6 1-1439, looked up)
CLIP-associated protein: MEEALEMARAKDTKERMAAVERLHQLLEASRKSLSPAEVTSLVDSCLDLLKDSNFRVSQGALQALASAAVLAGEHLKLHLNALVPAVVERLGDSKQPVRDAARRLLTTLMEVSSPTIIVERAGSYAWMHKSWRVREEFARTVTSAIGLFASTELPLQRVILAPILQMLNDPNQAVREAAILCIEEMYMQGGSQFREELQRHHLPSYMVKDINARLERIEPQLRSTDGRSAHHVVNEVKASSVNPKKSSPRAKAPTRENSLFGGDADITEKPIEPIKVYSEKELIREFEKIAATLVPEKDWSMRISAMRRVEGLVAGGATDYSCFRGLLKQLVGPLSTQLADRRSTIVKQACHLLCLLSKELLGDFEACAETFIPVLFKLVVITVLVIAESADNCIKTMLRNCKAARVLPRIAESAKHDRNAILRARCCEYALLTLEHWPDAPEIQRSVDLYEDLIRCCVADAMSEVRATARMCYRMFAKTWPDRSRRLFSSFDPVIQRLINEEDGGIHRRHASPSVRERHSQPSFSQTSAPSNLPGYGTSAIVAMDRSSNLSSGGSLSSGLLLSQSKDVNKGSERSLESVLQSSKQKVSAIESMLRGLHISDRQNPAALRSSSLDLGVDPPSSRDPPFHAVAPASNSHTSSAAAESTHSINKGSNRNGGLGLSDIITQIQASKDSGRSSYRGNLLSESHPTFSSLTAKRGSERNERSSLEESNDAREVRRFMAGHFDRQQMDTAYRDLTFRESNASHVPNFQRPLLRKNVGGRMSAGRRRSFDDSQLQIGDISNFVDGPASLNEALNDGLNSSSDWCARVAAFNFLQTLLQQGPKGAQEVIQSFEKVMKLFLRHLDDPHHKVAQAALSTLADLIPSCRKPFESYMERVLPHVFSRLIDPKEVVRQPCSSTLEIVSKTYSVDSLLPALLRSLDEQRSPKAKLAVIEFAINSFNRYAGNPEISGNSGILKLWLAKLTPLTRDKNTKLKEASITCIISVYNHYDSAGLLNYILSLSVEEQNSLRRALKQYTPRIEVDLLNYMQSKKEKQRIKSYDPSDAIGTSSEEGYAGASKKNIFLGRYSGGSIDSDSGRKWSSSQEPTMITGGVGQNVSSGTQEKLYQNVRTGISSASDLLNPKDSDYTFASAGQNSISRTSPNGSSENIEILDDLSPPHLEKNGLNLTSVDSLEGRHENEVSRELDLGHYMLTSIKVNTTPESGPSIPQILHMINGSDGSPSSSKKSGLQQLIEASVANEESVWTKYFNQILTVVLEVLDDEDFSIKELALSLISEMLKSQKDAMEDSVEIVIEKLLHVSKDTVPKVSTEAEQCLTTVLSQYDPFRCLSVIVPLLVTEDEKTLVACINCLTKLVGRLSQEELMDQLSSFLPAVFEAFGSQSADVRKTVVFCLVDIYIMLGKAFLPYLEGLNSTQVRLVTIYANRISQARNGAPIDADT
Molecule B5 showed a Normalized Fold Change: SA vs Mock of 2550 fold.

B6: ADF6 (protein, UniProt Q9ZSK2 1-146, looked up)
Actin-depolymerizing factor 6: MSFRGLSRPNAISGMGVADESKTTFLELQRKKTHRYVVFKIDESKKEVVVEKTGNPTESYDDFLASLPDNDCRYAVYDFDFVTSENCQKSKIFFFAWSPSTSGIRAKVLYSTSKDQLSRELQGIHYEIQATDPTEVDLEVLRERAN
Turning to B6, the Normalized Fold Change: SA vs Mock was determined as 2.26 fold.

B7: G6PD6, glucose-6-phosphate dehydrogenase 6 (protein, UniProt Q9FJI5 1-515, looked up)
Glucose-6-phosphate 1-dehydrogenase 6, cytoplasmic: MGSGQWHVEKRSTFRNDSFVREYGIVPETGCLSIIVLGASGDLAKKKTFPALFNLYRQGFLNPDEVHIFGYARTKISDEELRDRIRGYLVDEKNAEQAEALSKFLQLIKYVSGPYDAEEGFQRLDKAISEHEISKNSTEGSSRRLFYLALPPSVYPSVCKMIKTCCMNKSDLGGWTRIVVEKPFGKDLESAEQLSSQIGELFDESQIYRIDHYLGKELVQNMLVLRFANRFFLPLWNRDNIENVQIVFREDFGTEGRGGYFDEYGIIRDIIQNHLLQVLCLVAMEKPISLKPEHIRDEKVKVLQSVVPISDDEVVLGQYEGYRDDDTVPNDSNTPTFATTILRIHNERWEGVPFILKAGKALNSRKAEIRIQFKDVPGDIFRCQKQGRNEFVIRLQPSEAMYMKLTVKQPGLDMNTVQSELDLSYGQRYQGVAIPEAYERLILDTIKGDQQHFVRRDELKVAWEIFTPLLHRIDKGEVKSIPYKPGSRGPKEADQLLEKAGYLQTHGYIWIPPTL
In the case of B7, the Normalized Fold Change: SA vs Mock was 4.1 fold.

B8: atnudt5, NUDT5, nudix hydrolase homolog 5 (protein, UniProt Q9SJC6 1-302, looked up)
Nudix hydrolase 5: MGLTKNFAFLVFCCQRYCSMDGEAFEISLLDGEEDRFGGTVVNLMEVESMTIGDFDSKLDVSLKAWKDQGKKGIWIKLPSELSSLVDTAIKKGFTYHHAENEYVMLTFWLPEPPSTLPCNASHRIGIGAFVLNKNGEMLVVQENSGYFKDKNVWKVPTGTIKEGESIWAGAVREVKEETDIDAEFVEVLSFMESHQAVWQRKTDIFFVCELEARTFEIQKQDSEIHAAKWMPVEEYVNQPYHNKEGNEMFKLIANICLKRSREKYTGFVLTTNSAKKSLYCSVDHANLLKETADQASTSLSD
In turn, B8 yielded a Normalized Fold Change: SA vs Mock of 44.1 fold.
